Results: patent US20250361296A1

T1: His-tagged monkey SIGLEC15 protein (fasSIGLEC15-His, ACROBiosystems Inc., Cat #: SG5-C52H6) (monkey)
T1 sequence: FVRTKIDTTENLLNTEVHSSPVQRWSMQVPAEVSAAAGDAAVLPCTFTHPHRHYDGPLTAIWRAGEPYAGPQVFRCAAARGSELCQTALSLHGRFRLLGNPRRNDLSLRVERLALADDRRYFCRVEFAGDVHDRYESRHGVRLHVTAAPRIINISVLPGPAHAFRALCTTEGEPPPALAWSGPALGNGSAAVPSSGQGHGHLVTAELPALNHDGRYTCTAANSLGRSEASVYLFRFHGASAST


What was measured:
[1] = target: Macaca fascicularis (crab-eating macaque) SIGLEC15 on CHO-S-fasSIGLEC15 cells (Macaca fascicularis (crab-eating macaque)); test: flow cytometry, CHO-S cells expressing the target
[2] = target: T1, His-tagged monkey SIGLEC15 protein (fasSIGLEC15-His, ACROBiosystems Inc., Cat #: SG5-C52H6) (monkey); test: SPR (Biacore 8K), antibody captured on Protein A chip, His-tagged SIGLEC15 as analyte

| Percentage of Positive Cells [1] [%] | Kd [2] [pM] | koff [2] [s⁻¹] | kon [2] [M⁻¹ s⁻¹] | Binder |
| --- | --- | --- | --- | --- |
| 49.3 |  |  |  | anti-SIGLEC15 antibody 10A7 (antibody, human IgG1, V domains shown) VH: EVQLVQSGGGLVQPGGSLRLSCAASGFTFSNYEMNWVRQAPGKGLEWISYISNSGSTIYYADSVKGRFTISRDDAKNSLYLQMNSLRAEDTAVYYCAREDYDSSGYYWFDPWGQGTPVTVSS VL: DIQLTQSPSSVSASVGDRVTITCRASQGISSWLAWYQQKPGKAPKLLIYAASSLQSGVPSRFSGSGSGTDFTLTINSLQPEDFATYYCQQTNSFPLTFGGGTKVEIK |
| 47.5 | 20.6 | 5.01e-05 | 2.43e+06 | anti-SIGLEC15 antibody 10C9 (antibody, human IgG1, V domains shown) VH: QVQLVQSGAEVKKPGATVKVSCKASGYTFTNYGFSWVRQAPGQGLEWMGWINTYNDNTNYAQKFQGRVTMTTDTSTSTAYMELRSLRSDDTAVYYCARDGLWFGELPHYFDYWGQGTLVTVSS VL: DIQLTQSPLSSPVTLGQPASISCRSSQSLVNSDGETFLSWLQQRPGQPPRLLIYKISNRFSGVPDRFSGSGAGTDFTLKISRVEAEDVGVYYCMQATQFPHTFGQGTKLEIK |
